Here are results for twelve sequences from the DeepSol protein solubility set.

A short description of the series: soluble on expression in E. coli; label from the status in PepcDB or PDB records.
For “MSDLQKLIQGKIKTIAFAHDSTRVIQCFIQYGNEEQRKQAFQELQGDLVELSKAKYSRNIVKKFLMYGSKPQAAEIIRSFKGHVRKMLRHSEASAIVEYAYNDKAILEQRNMLTEELYGNTFQLYKSADHPTLDKVLELQPAKLELIMDEMKQVLTPMAQKEAVIKHSLVHKVFLDFFTYAPPKPRSELIEAIREAVVYLAHTHDGARVAMHCLWHGTPKDRKVIVKTMKTYVERVANVSAARARFLKSD”, the “soluble on expression in E. coli” value is “not soluble”. As for “MSDLSSSLCQLNWLIAKGGLNTVQEIEVPENPNIVGSPVAPAHEGKRRRIFDGADKPPYSYSQLIRLAIEDTPDKKCTLAEIYSFIAHNFQFYRENRNSSWKNSIRHNLSLNKQFSRIEKTDGDRRGWWVCVDPPAKKPRILKGSPVRVNPIYEHLYHNKQDMPNFTPPPEDPFLSEINGNVHELTEHEIRDLNLFESYDLNSSFRDVYNQIFEKSTSPNGKKQAAQIDWLKISLEAAGLDYHDEQELQEVDTDKLKDYVYNGFPAECDSDVSTPRTDSGRHSSSDSVLSATLQPVNNDSDDEYDWDKLL”, the entry is “not soluble”. Take “MSDNYKFFRHDNCEYFPCHKVKDKETFNCLFCYCPLYFLENCGGNKSDFNGVKDCSNCLIPHSKNGYDYIINKIREVNKEKRAKNNLTLEHHHHHH”: the “soluble on expression in E. coli” value is recorded as “soluble”. As for “MSDRGRTLMVQGTTSDAGKSTLVTALCRWLARRGVAVVPFKPQNMALNSAVTADGGEIGRAQAVQAQACRLAPHTDMNPVLLKPNTDIGAQVIIHGRAVTSMDAAAYHDYKRVAMEAVLASHGRLAAAYRVVMVEGAGSPAEINLRANDIANMGFAEAVDCPVILVADIDRGGVFAHLVGTLELLSDSERERVKGFVINRFRGDIALLQPGLDWLEARTGKPVLGVLPYVSDLHLEAEDAIDTRQAAKVGPRLKVVVPVLPRISNHTDFDPLRLHPQVELSFVGPGQALPSADLIVLPGSKSVRADLAALRERGWDEAILRHLRYGGRLLGICGGLQMLGERLHDPLGLEGAAGSSAGLGLLALETTLEADKQLRNVQGRLSLEDAPLSGYEIHAGVTRGEALARPAVVLDDGRADGARSVDGNVMGTYLHGLFESTAACSALLRWAGLREVQAVDYQALRERDIERLADLVERHLDTGRLLALCGEPH”, the “soluble on expression in E. coli” value is given as “not soluble”.

“MSDVENASLPPAIFIMGPTASGKTALAMTLREYLPVELISVDSALIYKDMDIGTAKPSADELARAPHRLIDILDPTESYSAADFRRDALREMADITAAGRIPLLVGGTMLYFKALLEGLSPLPPADAAVRQRIEEQAKEIGWEAMHRQLSEIDPTAAIRIHPNDPQRLSRALEVFFISGNTLTELTKTSGDALPYQVHQFAIAPAMRELLHQRIEQRFHQMLAAGFETEARALFARHDLHTDMPSIRCVGYRQMWSYLSGEIDYDEMVYRGVCATRQLAKRQMTWLRGWDDVCWLDSENPTEALDKVIQVVSALEHHHHHH”: the “soluble on expression in E. coli” value is on record as “soluble”. As for “MSDWNPSLYLHFAAERSRPAVELLARVPLENVDYVADLGCGPGNSTALLHQRWPAARITGIDSSPAMIAEARSALPDCQFVEADIRNWQPEQALDLIFANASLQWLPDHYELFPHLVSLLNPQGVLAVQMPDNWLEPTHVLMREVAWEQNYPDRGRESLAGVHAYYDILSEAGCEVDIWRTTYYHQMPSHQAIIDWVTATGLRPWLQDLTESEQQLFLTRYHQMLKEQYPLQENGQILLAFPRLFIVARRTE”, the entry is “soluble”. Turning to “MSEAEARPTNFIRQIIDEDLASGKHTTVHTRFPPEPNGYLHIGHAKSICLNFGIAQDYKGQCNLRFDDTNPVKEDIEYVESIKNDVEWLGFHWSGNVRYSSDYFDQLHAYAIELINKGLAYVDELTPEQIREYRGTLTQPGKNSPYRDRSVEENLALFEKMRAGGFEEGKACLRAKIDMASPFIVMRDPVLYRIKFAEHHQTGNKWCIYPMYDFTHCISDALEGITHSLRTLEFQDNRRLYDWVLDNITIPVHPRQYEFSRLNLEYTVMSKRKLNLLVTDKHVEGWDDPRMPTISGLRRRGYTAASIREFCKRIGVTKQDNTIEMASLESCIREDLNENAPRAMAVIDPVKLVIENYQGEGEMVTMPNHPNKPEMGSRQVPFSGEIWIDRADFREEANKQYKRLVLGKEVRLRNAYVIKAERVEKDAEGNITTIFCTYDADTLSKDPADGRKVKGVIHWVSAAHALPVEIRLYDRLFSVPNPGAADDFLSVINPESLVIKQGFAEPSLKDAVAGKAFQFEREGYFCLDSRHSTAEKPVFNRTVGLRDTLEHHHHHH”, the “soluble on expression in E. coli” value is given as “soluble”. As for “MSEANSNSEFQTFIEQENQKAAIQAAISKLTETCWDKCVGKPGSKLDRAESECIANCAERFLDSSSFIMQRLMKKQ”, the entry is “soluble”; as for “MSECLMFGMDCEARCMTSMTADEENICFLVGTNNIKNDKNQVNKLFMDPEASRLMSKTFRHPAGEVRAIAAHPTKSTILATCTADFSSLGGTHSITIWNIEEDKRTLETVSRLPTEQVMSCLEWEPNSMKCAAMTPFRPEIQLLNMENGPEIVQNLKIPLENEEDEMFSATWSPHHDGNMLGVTGGRTAWCIDCRTDNEYLKIRDAHIHRTISMDFNPNLQHVIATCGDDGYVRIWDTRSTSSALTSLHPHAHWVWSVRFHPVHDQLLLTGGSDASVVLSCAQSVSSEQQIEFRDDEEEEEDDDLVEKLQDGQLERIDEHEDSVYACAWSSADPWTFASLSYDGRMIVSNVSRKHKYALMQL”, “not soluble”; as for “MSEDGGVTTDERACAAPLQLSNTFPRVSRHAVQTGLSPHPRVRNVIAVGSGKGGVGKSTIAVNLAVALQRTGVRVGLLDADIYGPSVPAMLGLSGRPESPDNKLIEPLRAFGIEAMSIGLLIDVDTPMIWRGPMATSALTQLFNDTLWGDLDYLLIDLPPGTGDIQLTLSQKIPVAGAVIVTTPQDIATLDARKALKMFEKVNVPVLGIVENMAMHCCRQCGHVEHLFGEGGAQRMAEHYHVPLLGSLPLDIVIREHGDLGQPITVAAPKGSVGQAYAAVAACLAAELAKRPRAAIPMTTTLGLEHHHHHH”, “not soluble”. The entry for “MSEEHIAVTRFREYLRVNTEQPNPDYVACRDFLFKYADEVGIERKAVETAPGVYFVIMTIPGSQPELPSIMLYSHTDVVPTFREHWTHDPYSAFKDEDGNIFARGAQDTKCLGVQHVEAFRNLFAKGAKQWKRTIHVVWGPDEETGHINGMKGFVETNEFKKLNIGFSLDEGHASENGVYLTFYAERVTWWLKVTAPGNPGHGSQFMENTAMEKIERFLASARAFRNEQKELLEKNPTWALGDVTTLNVNILKGGVQFNVIPEKFEAYVDIRLTPNQDFGEIRAKLDQWVKDAGEGVTYEFSQHSDYKPVSPHTRDDPFWAAFEDSLKQENCEFTTEVCVGSTDSRFVRKAGVPAINFSPMINTPVRAHAHNEFLNEKVFLRGVEIFETLINNLGNV” is “not soluble”.

Take “MSEEIKQEVKEEAPETTTEAKTEEAAPVAEVVAEVVTNGDKPAENGKTEEPSKYAETENYKKLIGLKMKPALADVVCEIYESGLLGPEDLDDRAVDIINSVNLDQAKFIFTEIKNSELFGVATKSLYVTSLIRSFKDRCRQQGAAAVTSGKLINGPELAALKNLLETTGYTIEVTIGQRKFGGPPPDWEGPATGPAGQGHEIYVGHIPTDVFEDTLVPLFEKSGKIWDLRLMMDPMSGASRGYAFVTYCNKEDAAAAAKTYDGHEISTGKPLKVNVSIANTRLFIGNIPKTKSKDEILEELKTHAEGVVDVIVYSVPDNEKIKNRGFCFVDFIDHKTASDIKRKIAQHKIRPFNADVYVDWAEHQEEPDEDTMSKVKVLYIRNIKEAVTEEKLNELFKEYASLDRVKKVKDYAFIHFNERDDCLKAMEEWNGKELEGTVVEASLAKPPQEKKKKPVMRGRGFGGAGGGAGNHGQRGGQRGGGQWGGNAGPGGYYPNHFNNGYDMPMPWGGGYGGDMGYGAYGGGYGGGYGGPGAYGDFGAYGGGGFRGGMRGSPRGGMGGGGGFRGGPPGRGGMANRRGRGKRPGDGRGGPASKRDNGKPDFSADVNMSTF”: the “soluble on expression in E. coli” value was “not soluble”.
